Consider two variants from IntAct's records for PubMed 23624502.

Sequences and labels used below:
B1: Ras-related protein Rab-39B (Mus musculus), Q8BHC1 (parent)
chain: MEAIWLYQFRLIVIGDSTVGKSCLIRRFTEGRFAQVSDPTVGVDFFSRLVEIEPGKRIKLQIWDTAGQERFRSITRAYYRNSVGGLLLFDITNRRSFQNVHEWLEETKVHVQPYQIVFVLVGHKCDLDTQRQVTRHEAEKLAAAYGMKYIETSARDAINVEKAFTDLTRDIYELVKRGEITIQEGWEGVKSGFVPNVVHSSEEVIKSERRCLC
partner: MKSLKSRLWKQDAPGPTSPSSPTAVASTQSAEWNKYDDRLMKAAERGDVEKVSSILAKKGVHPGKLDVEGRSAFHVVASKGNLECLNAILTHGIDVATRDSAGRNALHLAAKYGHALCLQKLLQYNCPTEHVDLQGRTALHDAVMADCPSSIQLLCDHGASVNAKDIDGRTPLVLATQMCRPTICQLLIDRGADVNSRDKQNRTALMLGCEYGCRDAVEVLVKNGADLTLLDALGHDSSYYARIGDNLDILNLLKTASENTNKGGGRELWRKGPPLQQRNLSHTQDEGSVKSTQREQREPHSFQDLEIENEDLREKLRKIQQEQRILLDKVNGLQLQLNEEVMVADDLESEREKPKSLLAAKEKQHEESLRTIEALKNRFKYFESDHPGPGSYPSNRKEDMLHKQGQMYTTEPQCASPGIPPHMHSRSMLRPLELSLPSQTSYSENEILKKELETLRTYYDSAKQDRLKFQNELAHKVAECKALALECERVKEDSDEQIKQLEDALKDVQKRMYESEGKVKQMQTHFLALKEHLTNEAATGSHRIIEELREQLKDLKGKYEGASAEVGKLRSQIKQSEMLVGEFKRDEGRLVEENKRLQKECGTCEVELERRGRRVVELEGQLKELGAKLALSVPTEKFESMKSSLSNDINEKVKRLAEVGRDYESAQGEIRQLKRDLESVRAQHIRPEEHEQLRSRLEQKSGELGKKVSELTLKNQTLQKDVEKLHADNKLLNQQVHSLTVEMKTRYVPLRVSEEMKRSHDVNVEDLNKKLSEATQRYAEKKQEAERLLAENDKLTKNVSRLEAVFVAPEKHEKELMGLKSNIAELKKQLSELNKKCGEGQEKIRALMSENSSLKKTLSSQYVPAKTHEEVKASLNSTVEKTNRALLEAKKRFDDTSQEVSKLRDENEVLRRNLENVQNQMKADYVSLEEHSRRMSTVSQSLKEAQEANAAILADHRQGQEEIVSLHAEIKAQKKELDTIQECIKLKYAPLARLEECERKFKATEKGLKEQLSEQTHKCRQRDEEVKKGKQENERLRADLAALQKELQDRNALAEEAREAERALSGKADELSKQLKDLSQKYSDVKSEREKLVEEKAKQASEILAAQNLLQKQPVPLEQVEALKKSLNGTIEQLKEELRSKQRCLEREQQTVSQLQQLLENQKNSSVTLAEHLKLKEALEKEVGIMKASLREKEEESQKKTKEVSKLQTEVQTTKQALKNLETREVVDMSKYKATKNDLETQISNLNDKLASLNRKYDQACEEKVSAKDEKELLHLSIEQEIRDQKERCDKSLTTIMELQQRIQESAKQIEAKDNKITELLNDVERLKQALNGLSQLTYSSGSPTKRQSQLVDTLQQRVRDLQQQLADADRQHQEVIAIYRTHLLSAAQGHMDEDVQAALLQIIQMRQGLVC
B2: Ras-related protein Rab-39A (Mus musculus), Q8BHD0 (parent)
chain: METIWIYQFRLIVIGDSTVGKSCLLHRFTQGRFPGLHSPACDPTVGVDFFSRLLEIEPGKRIKLQLWDTAGQERFRSITRSYYRNSVGGFLVFDITNRRSFEHVKDWLEEAKMHVQPFQIVFLLVGHKCDLASQRQVSREEAERLSTDCGMKYIETSAKDATNVEESFTILTRDIYELIKKGEICIQDGWEGVKSGFVPNTVHSSEEAVKPRKECFC
partner: B1 partner

What all share (conditions): with Uaca
Variants of B1 are the subject of experiment [1].
In experiment [2] the parent is B1. The source holds these as a separate data set.
The variants in experiment [3] derive from B2. This is another data set of the same source.
In experiment [4] the parent is B2. The source holds these as a separate data set.

As for S22N, the “effect of a mutation on the interaction” value with Uaca, Q8CGB3-3 [1] is given as “disrupting interaction”; in the experiment with Uaca, Q8CGB3-3 [2] it was “decreasing interaction”.
Consider S22N, for which the “effect of a mutation on the interaction” value with Uaca, Q8CGB3-3 [3] is listed as “disrupting interaction”; with Uaca, Q8CGB3-3 [4], “decreasing interaction”.
